Experimental data reported in publication PMC3319578, “Talin Contains A C-Terminal Calpain2 Cleavage Site Important In Focal Adhesion Dynamics” (PLoS ONE, 2012).

Target: the molecule itself
Assay: SEC; analytical gel filtration, Superdex-75 (10/300), room temperature, 20 mM Tris pH 8.0, 150 mM NaCl, 2 mM DTT, 0.8 ml/min

Row | Protein | stoichiometry N
1 | talin1 2300–2541 polypeptide (C-terminal actin-binding site and dimerisation domain), wild type (domain or fragment, mouse, UniProt P26039 2300-2541, looked up, Cloned into pET-151/D-TOPO; dimer by gel filtration; also called talin 2300–2541; ABS-DD; source: E. coli, purified (Ni-NTA, TEV cleavage, Resource-Q)) DPTVIAENELLGAAAAIEAAAKKLEQLKPRAKPKEADESLNFEEQILEAAKSIAAATSALVKAASAAQRELVAQGKVGAIPANALDDGQWSQGLISAARMVAAATNNLCEAANAAVQGHASQEKLISSAKQVAASTAQLLVACKVKADQDSEAMKRLQAAGNAVKRASDNLVKAAQKAAAFEDQENETVVVKEKMVGGIAQIIAAQEEMLRKERELEEARKKLAQIRQQQYKFLPSELRDEH | 2
2 | talin1 2300–2541 E2492G mutant (domain or fragment, mouse, UniProt P26039 2300-2541, looked up, talin1, mouse, residues 2300–2541 with E2492G; Dimer by gel filtration; also called E2494G (as printed once in the text); source: E. coli, purified (Ni-NTA, TEV cleavage, Resource-Q)) DPTVIAENELLGAAAAIEAAAKKLEQLKPRAKPKEADESLNFEEQILEAAKSIAAATSALVKAASAAQRELVAQGKVGAIPANALDDGQWSQGLISAARMVAAATNNLCEAANAAVQGHASQEKLISSAKQVAASTAQLLVACKVKADQDSEAMKRLQAAGNAVKRASDNLVKAAQKAAAFEDQENETVVVKGKMVGGIAQIIAAQEEMLRKERELEEARKKLAQIRQQQYKFLPSELRDEH | 2
